In the supplement of paper PMC9170038:

System: MS2 coat protein
Experiment: apparent KD of MS2 coat protein; designed switch direction (-1 OFF switch, 1 ON switch): -1; higher = weaker reporter binding
Procedure, shortened: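 Designed RNA switches with common flanks were made on Illumina chips by stalled E. coli RNA polymerase. Titration with SNAP-549-labelled MS2 coat protein doubled from 0.7 or 1.5 nM up to 3 µM. Apparent KD is each design's median over clusters after curve-fitting normalised fluorescence.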

[1] = input ligand: microRNA oligo, concentration not stated
[2] = Eterna round: R95, input ligand: FMN 200 uM
[3] = Eterna round: R95, input ligand: microRNA oligo, concentration not stated
[4] = Eterna round: R95, input ligand: none

Sequence	apparent KD of MS2 coat protein (input ligand: FMN 200 uM) [µM]	apparent KD of MS2 coat protein (input ligand: none) [µM]	apparent KD of MS2 coat protein [1] [µM]	apparent KD of MS2 coat protein [2] [µM]	apparent KD of MS2 coat protein [3] [µM]	apparent KD of MS2 coat protein [4] [µM]
GGCAUGCAAGGAUAUACUUACGGUGAUGUUCGAAGCUUUCUACUUGAGGAUCACCCAAGUAGAAGGUGCAUGCC [jl-ex2.4.75 ViennaUCT mod] (Eterna round: R97, puzzle: Exclusion 2)	0.0105	0.0211	–	–	–	–
CUGCUGGAGCUUCGCUUUGGUCGUACAUGAGGAUCACCCAUGUAGGAUAUGGUAAAAUUCGCCUGCUAGAAGGAUAGAGUGGUC [salish99_ExNG3_r04_619] (Eterna round: R96, puzzle: Exclusion NG 3)	–	–	0.0801	–	–	–
GUAACAUGCUGGUGAUCAUACAUGAGGAUCACCCAUGUAACAAGCUUUUUGCUCGUCUUAUAAGAUUACUAGUAUGU [Stov1/10-A3] (Eterna round: R97, puzzle: Sensor, turn-off variant 1)	0.022	0.0243	–	–	–	–
ACAUGUAUUGCAGGAUAUGGGACACAUGAGGAUCACCCAUGUGACCAUAUGUAAUGCUAAGAGUCUCAGAAGGGUAUGUACAUG [Ex NG2 #45] (Eterna round: R96, puzzle: Exclusion NG 2)	0.0107	0.0114	0.00859	–	–	–
GUCAGCUCGUCAGGAUAUACAUGCGUGCUUCGGCACGUAUGAUAGAUCACAUGAGGAUCACCCAUGUAGAAGGGACGAGCUGAC [ENG2/4-B1] (Eterna round: R96, puzzle: Exclusion NG 2)	0.0132	0.0125	0.00992	–	–	–
UUUAUAAUUUCAAUCUUCGCUGGCGAACUUACGCCAGCCACAUGAGGAUCACCCAUGUUUUUUGUUCGUUUUAUUCU [Gelaoren] (puzzle: Sensor v3, turn-off variant 2)	–	–	–	0.0195	0.0666	0.0211
UACACUGCAUGAGGAUCAAACAUGAGGAUCACCCAUGUAUAGCAAGCUUUUUGCGCGUCUUAUAAUUAUGUAGUGUA [Electric Eye 19 - Jieux - Sensor, turn-off variant 1] (Eterna round: R97, puzzle: Sensor, turn-off variant 1)	0.0158	0.0154	–	–	–	–
AAGGAUAGAGGAUAUACAUAGAUACAGAUUCAUGUAGAAUUACAUGAGGAUCACCCAUGUAGAAGGCUAUCCUA [Fiskers Ex 2 - 1] (puzzle: Exclusion 2)	–	–	–	–	0.285	–
UAUAUAUAGUAAGGAUAUGUAUUUAUUUUGUAAACAGAAGGUACUGACAUGAGGAUCACCCAUGUUUUAGUGUGGGCAUGUAGA [JMF's solution 22] (Eterna round: R96, puzzle: Exclusion NG 1)	0.147	0.141	0.0785	–	–	–
CCAAGCAAAAUCAUUAACAACAUGAGGAUCACCCAUGUGUAAGCAAUUAUGUUUGGGCUCUUUAGAGCUCGUCUUAU [JR_STOV1_Sub044] (Eterna round: R97, puzzle: Sensor, turn-off variant 1)	0.0135	0.0142	–	–	–	–
CAAAAUGUAUAAGGAUAUCUCGCCAAUAAAGGCAGAGAAGGUAUACCCACUUGAGGAUCACCCAAGUCAGGUGUGCCUGGUGGA [Mutated MS2 EX1.24] (Eterna round: R96, puzzle: Exclusion NG 1)	0.00787	0.0109	0.00761	–	–	–
UGCAAUCUUAUGAUAUCUCACAUGAGGAUCACCCAUGUGCUCGUCUUAUGUUCUGUUUUGCUGUUGUCCGGCCGGCC [1st try] (Eterna round: R97, puzzle: Sensor, turn-off variant 1)	0.0275	0.0313	–	–	–	–
GUUGUUUAUGUAGGAUAUGCCUGGCGUGCCUUUGCAGAAGGACAUGAGGAUCACCCAUGUAACAUGAGGCUCACCCAUGUCGCU [salish99_ExNG1_r04_108] (Eterna round: R96, puzzle: Exclusion NG 1)	0.397	0.296	0.159	–	–	–
AGUAGUAGUAUCCGAUCCGACAUGAGGAUCACCCAUGUAGCUAGACGUGCACGCGAUGCUCGUCAGACUACCAGAUG [salish99_TOv1_r3_037] (puzzle: Sensor v3, turn-off variant 1)	–	–	–	0.102	0.1	0.0741
CCGAGGUGGCGGUCCUAUGACAUGAGGAUCACCCAUGUACCUCGCCACGAGCCUUUUGCUCAUCUUAUAAUUCUCGG [Bienve] (puzzle: Sensor v3, turn-off variant 1)	–	–	–	0.0174	0.0206	0.0172
AGUACUAACACGCGAGUGUUAGUACAAUAAGCUUGUGAAACAUGAGGAUCACCCAUGUCCUCAUAAGCUCGUCUUAU [salish99_TOv2_r3_059] (puzzle: Sensor v3, turn-off variant 2)	–	–	–	0.0167	0.674	0.0145
GGUACUAACACGAUAGUGUUAGUACUAUAAGCUUGUGUUACAUGAGGAUCACCCAUGUCCUCAUAGGCUCGUCUUAU [Mat - Sensor v3 - Turn-off var 2 - D86] (puzzle: Sensor v3, turn-off variant 2)	–	–	–	0.169	0.0308	0.166

Sequence	apparent KD of MS2 coat protein (input ligand: FMN 200 uM) [µM]	apparent KD of MS2 coat protein (input ligand: none) [µM]	apparent KD of MS2 coat protein [1] [µM]	apparent KD of MS2 coat protein [2] [µM]	apparent KD of MS2 coat protein [3] [µM]	apparent KD of MS2 coat protein [4] [µM]
AUGAGGUUAGGAUAUACAUGAGGAUCACCCAUGUUGGAGAAGGAAAUGUAAGUAGCGAGUAGAAGGAACGGAGC [JR_Exclu3_Sub059] (Eterna round: R96, puzzle: Exclusion 3)	0.0486	0.049	0.0404	–	–	–
GUACCAGAUGUCAGGAUAUGCUUUGAGAGUUGCGAGUAGAAGGGACAUGAGGAUCACCCAUGUACCUACAGGAA [BmEX4 B.30] (Eterna round: R97, puzzle: Brourd's mod of Exclusion 4)	0.0147	0.014	–	–	–	–
GAGUAGGGAGGAUAUACGUGCUCAAUCCCGGAAAGCGGGAAACAUGAGGAUCACCCAUGUAGAAGGCCCAUAAA [Riisen] (puzzle: Exclusion 2)	–	–	–	–	0.0684	–
GUAAUUAAUGUAGGAUAUGCAAGGCGAACCUAAGCAGAAGGACAUGUGGAUCACCCAUGACAUGAGGAUCACCCAUGUAUCGCU [salish99_ExNG1_r4_005] (Eterna round: R96, puzzle: Exclusion NG 1)	0.109	0.212	0.122	–	–	–
AUAUCAAGCAAGGAUAUGCAAAUGGUUAUUUAUGCAGAAGGUGCAACAUGAGGAUCACCCAUGUUUCUGGGUUU [JR_E6_Sub049] (Eterna round: R96, puzzle: Exclusion 6)	0.124	0.0557	0.0417	–	–	–
GCACUGACAGGAUAUACAUGAGGAUCACCCAUGUGACCCUUGGAGUACUCGCGUACUCGUAGAAGGGUCUGUGC [Omei Ex3 Model Bachelor's Dilema v37] (Eterna round: R97, puzzle: Exclusion 3)	0.0958	0.0359	–	–	–	–
UGCAGACGAGGAUAUGAUUAAUAAUACAUGAGGAUCACCCAUGUAAUACUGAUCUAUGGAUCAGAAGGUGUCUGCU [E5/6-B3] (Eterna round: R97, puzzle: Exclusion 5)	0.0208	0.0241	–	–	–	–
UACAUGAGGAUCACCCAUGUUUUGUCGUGUAUGGUAUUUAUCUAGGAUAUCGUUUUAUUUAACCACGAGAAGGAGAGUAUCAAU [MOD2 Solution 21 by JMF] (Eterna round: R96, puzzle: Exclusion NG 3)	–	0.0397	0.0339	–	–	–
UGUUGUCGCGCAGGAUAUGAGGAUCACCCAUGUAGAGGAUAUGAAAAGAAGGCUCUGAGGAUUACCCAGAAGGGCGGGACAACU [pwkr exNG2 2xF5 2xFMN.25] (Eterna round: R96, puzzle: Exclusion NG 2)	0.8	0.4	0.27	–	–	–
ACCUCACAUGAGGAUCACCCAUGUCAGGAUAUACAAACCGUGUAAAGACACGGUCGUAGUAGAAGGGACUAUGG [Telalebees] (puzzle: Exclusion 1)	–	–	–	–	0.0591	–
AAGAUGUCAGGAUAUUAGUAGUAAAUGAAUAAAAUUAUUACUGAGAAGGGACAUGAGGAUCACCCAUGUGUCUU [Mat - Exclusion 4 - Eli Mod - D11] (Eterna round: R97, puzzle: Exclusion 4)	0.0802	0.0198	–	–	–	–
AAUUUAUGAGGAUAUACAGUGUAAAACAUGAGGAUCACCCAUGUUCUUCAAUUAGUAUUUGUAGAAGGCAUAUGUA [JR_Ex5_Sub095] (Eterna round: R97, puzzle: Exclusion 5)	0.0172	0.0171	–	–	–	–
ACGCAUUGCCAAAGGUAAUGCGUUACAUGAGGAUCACCCAUGUAGGAUAUGGUAGGCAAAGCUUACCAGAAGGACAUGAUAAUU [Mat - Exclusion NG 3 - Mod of JL - D7] (Eterna round: R96, puzzle: Exclusion NG 3)	0.219	0.057	0.04	–	–	–
AUUCCUUGUGUUAGGAUAUGUCACUACCGUAUGCGACAGAAGGAACAUGAGGAUCACCCAUGUGAGUUAGCCGA [Usened] (puzzle: Brourd's mod of Exclusion 4)	–	–	–	–	0.0524	–
CAUGAUCUUCGGAUCAUGUACAUGAGGAUCACCCAUGUUACGAGCUGAUUUUCAUACAAGCUUUUUGCUCGUCUUAU [Sensor v3 - Turn-off variant 1 - 30] (puzzle: Sensor v3, turn-off variant 1)	–	–	–	0.0415	0.317	0.043
AAGAGCAAGGCAGGAUAUCACAUGAGGAUCACCCAUGUAUCCGAAAGAACAACGCCCGCGUUGUGUGAGAAGGGUCUAUGCAGG [Eternabot solution 10] (Eterna round: R96, puzzle: Exclusion NG 2)	0.37	0.0758	0.0616	–	–	–
